In publication PMC8840716, “Functional Antagonism of WRI1 and TCP20 Modulates GH3.3 Expression to Maintain Auxin Homeostasis in Roots”:

Assays:
[1] = target: T1, AtWRI1 1-302 (UniProt Q6X5Y6 1-302); assay: EMSA; 15 mM HEPES-KOH pH 7.5, 7.5 mM KCl, 0.5 mM EDTA, 5% glycerol, 2 mM DTT, 1 ug/uL BSA, 0.05 ug/uL poly(dI-dC), 2 fmol/uL probe, ~1 pmol His-TCP20 in 20 uL, room temperature 30 min; conditions: protein: recombinant; tags: N-terminal 6xHis (pNIC28-Bsa4); label: 5' biotin
[2] = target: T2, TCP20 (UniProt Q9LSD5 1-314); assay: as above; conditions: protein: recombinant; tags: 6xHis (pET41a-6xHis); chain copies: 2; label: 5' biotin
[3] = target: T2, TCP20; assay: EMSA; plus AtWRI1 1-302, 0.53-2.12 pmol (no reduction); 15 mM HEPES-KOH pH 7.5, 7.5 mM KCl, 0.5 mM EDTA, 5% glycerol, 2 mM DTT, 1 ug/uL BSA, 0.05 ug/uL poly(dI-dC), 2 fmol/uL probe, ~1 pmol His-TCP20 in 20 uL, room temperature 30 min; conditions: protein: recombinant; tags: 6xHis (pET41a-6xHis); chain copies: 2; label: 5' biotin
[4] = target: T1, AtWRI1 1-302; assay: EMSA; equal affinity to probe 1; 15 mM HEPES-KOH pH 7.5, 7.5 mM KCl, 0.5 mM EDTA, 5% glycerol, 2 mM DTT, 1 ug/uL BSA, 0.05 ug/uL poly(dI-dC), 2 fmol/uL probe, ~1 pmol His-TCP20 in 20 uL, room temperature 30 min; conditions: protein: recombinant; tags: N-terminal 6xHis (pNIC28-Bsa4); label: 5' biotin
[5] = target: T1, AtWRI1 1-302; assay: EMSA; equal affinity to probe 2; 15 mM HEPES-KOH pH 7.5, 7.5 mM KCl, 0.5 mM EDTA, 5% glycerol, 2 mM DTT, 1 ug/uL BSA, 0.05 ug/uL poly(dI-dC), 2 fmol/uL probe, ~1 pmol His-TCP20 in 20 uL, room temperature 30 min; conditions: protein: recombinant; tags: N-terminal 6xHis (pNIC28-Bsa4); label: 5' biotin
[6] = target: T1, AtWRI1 1-302; assay: EMSA; equal affinity to probe 3; 15 mM HEPES-KOH pH 7.5, 7.5 mM KCl, 0.5 mM EDTA, 5% glycerol, 2 mM DTT, 1 ug/uL BSA, 0.05 ug/uL poly(dI-dC), 2 fmol/uL probe, ~1 pmol His-TCP20 in 20 uL, room temperature 30 min; conditions: protein: recombinant; tags: N-terminal 6xHis (pNIC28-Bsa4); label: 5' biotin

T1 sequence (Q6X5Y6 1-302): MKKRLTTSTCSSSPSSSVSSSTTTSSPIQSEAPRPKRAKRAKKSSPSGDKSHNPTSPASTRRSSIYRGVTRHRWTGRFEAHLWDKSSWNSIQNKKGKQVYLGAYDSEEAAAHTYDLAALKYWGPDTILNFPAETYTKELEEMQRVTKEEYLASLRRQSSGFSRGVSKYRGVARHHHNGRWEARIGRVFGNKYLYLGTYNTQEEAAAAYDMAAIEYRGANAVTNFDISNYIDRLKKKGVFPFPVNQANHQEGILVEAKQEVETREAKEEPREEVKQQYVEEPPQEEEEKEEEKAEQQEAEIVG
T2 sequence (Q9LSD5 whole entry): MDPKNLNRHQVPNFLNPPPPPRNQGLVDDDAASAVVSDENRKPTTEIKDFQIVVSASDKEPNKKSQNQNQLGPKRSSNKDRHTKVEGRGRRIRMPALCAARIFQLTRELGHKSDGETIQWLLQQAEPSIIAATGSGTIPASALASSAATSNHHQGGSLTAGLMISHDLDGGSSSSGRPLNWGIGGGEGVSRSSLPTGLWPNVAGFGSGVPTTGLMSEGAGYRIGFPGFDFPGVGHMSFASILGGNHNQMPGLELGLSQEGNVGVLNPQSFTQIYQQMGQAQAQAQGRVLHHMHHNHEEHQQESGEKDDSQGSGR

B1: proGH3.3 probe 1 (dsDNA)
DNA 1: TCTAACGATAACAAACCGAGCCCACTTTTATGTCGACGTGGAATTTGGCT
DNA 2: AGCCAAATTCCACGTCGACATAAAAGTGGGCTCGGTTTGTTATCGTTAGA
binding result [1]: binds | binding result [2]: binds

B2: proGH3.3 probe 2 (dsDNA)
DNA 1: ATGTCTGCCCAAAACTAGCCAAAGATTACGTGACCGCGGTCCCTCTTGTCC
DNA 2: GGACAAGAGGGACCGCGGTCACGTAATCTTTGGCTAGTTTTGGGCAGACAT
binding result [1]: binds | binding result [2]: binds

B3: proGH3.3 probe 3 (dsDNA)
DNA 1: GACATATCAGTCCCACATGTCTGCCCAAAACTAGCCAAAGATTACGTGACC
DNA 2: GGTCACGTAATCTTTGGCTAGTTTTGGGCAGACATGTGGGACTGATATGTC
binding result [3]: binds | binding result [1]: binds

B4: proGH3.3 probe 1M (dsDNA)
DNA 1: TCTAACGATAACAAACCAAGAAAAATTTTATGTCGACGTGGAATTTGGCT
DNA 2: AGCCAAATTCCACGTCGACATAAAATTTTTCTTGGTTTGTTATCGTTAGA
binding result [4]: binds | binding result [2]: no binding

B5: proGH3.3 probe 2M (dsDNA)
DNA 1: ATGTCTGCCCAAAACTAGCCAAAGATTACGTGACCGCAATAAATATTGTCC
DNA 2: GGACAATATTTATTGCGGTCACGTAATCTTTGGCTAGTTTTGGGCAGACAT
binding result [5]: binds | binding result [2]: no binding

B6: proGH3.3 probe 3M (dsDNA)
DNA 1: GACATATCAATAAAAAATGTCTGCCCAAAACTAGCCAAAGATTACGTGACC
DNA 2: GGTCACGTAATCTTTGGCTAGTTTTGGGCAGACATTTTTTATTGATATGTC
binding result [6]: binds | binding result [2]: no binding

B7: proGH3.3 probe 4 (dsDNA)
DNA 1: CTATATATTTTTAATATTTAGGTCCCATTAAATCAGTTTGTGATTTCAGA
DNA 2: TCTGAAATCACAAACTGATTTAATGGGACCTAAATATTAAAAATATATAG
binding result [3]: binds

B8: proGH3.3 probe 4M (dsDNA)
DNA 1: CTATATATTTTTAATATTTAAATAAAATTAAATCAGTTTGTGATTTCAGA
DNA 2: TCTGAAATCACAAACTGATTTAATTTTATTTAAATATTAAAAATATATAG
binding result [2]: no binding
